B1: TPR t1 (parent)
chain: GACCAAUCUGCCCUCAGAGCUCGAGAACAUCUUCGGAUGCAGAGGAGGCAGGCUUCGGUGGCGCGAUAGCGCCAACGUCCUCAACCUCCAAUGCAUCCCACCACAUGAUGAUGCCUGAAGAGCCUUGGUUUUUUG

Variants of: B1
Test: polymerase ribozyme fitness, log enrichment relative to wild type (log ratio); higher = more active; in vitro selection for triplet polymerase activity
Outline: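 Each subunit of a heterodimeric triplet polymerase ribozyme was represented by a PCR-built, transcribed mutant library that underwent triplicate single-round in vitro selection with frozen incubation at −7 °C. Extended constructs were recovered by gel excision, streptavidin-bead capture and RT-PCR, and Illumina sequencing of input and output libraries kept genotypes with ≥10 input reads and ≥1 read per output. Fitness is the logarithm of genotype enrichment relative to wild-type enrichment, from inverse-variance-weighted replicate averages, with a logarithm base of 2.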

Row | Variant | polymerase ribozyme fitness (log ratio)
1 | GACCAAUCUGCCCGCAGAGCUCGAGAACAUCUUCGGAUGCAGAGGAGGCAGGCUUCGGUGGCGCGAUAGCGCCAACGUCCUCAACCUCCAUUGCAUCCCACCACAUGAUGGUGCCUGAAGAGCCUUGGUUUUUUG [U14G A91U A111G] | -4.63
2 | GACCAAUCUGCCCGCAGAGCUCGAGAACAUCUUCGGAUGAACAGGAGGCAGGCUUCGGUGGCGCGAUAGCGCCAACGUCUUCAACCUCCAAUGCAUCCCACCACAUGAUGAUGCCUGAAUAGCCUUGGUUUUUUG [U14G C40A G42C C80U G120U] | -3.6
3 | GACCAAUCUGCCCGCAGAGCUCGAGAACAUCUUCGGAUGCAGAGGAGGCAGGCUUCGGUGGCGCGAUAGCGCCAACGUCCUCAACCUCCACUGCAUUCCACCACAUGAUGAUGCCUGAAGAGCCUUGGUUUUUUG [U14G A91C C97U] | -4.05
4 | GACCAAUCUGCCCGCAGAGCUCGAGAACAUCUUAGGAUGCAGAGGAGGCAGGCUUCGGUGGCGCGAUAGCGCCAACGUCCUCAACCUCCAAUGCAUCCCACCACAUGAUGAUGCCUGAAGGGCCUUGGUUUUUUG [U14G C34A A121G] | -0.374
5 | GACCAAUCUGCCCGUAGAGCUCGAGAACAUCUUCGGUUGCAGAGGAGGCAGGCUUAGGUGGCGCGCUAGCGCCAACGUCCUCAACCUCCAAUGCAUCCCACCACAUGAUGAUGCCUGAAGAGCCUUGGUUUUUUG [U14G C15U A37U C56A A66C] | -5.37
6 | GACCAAUCUGCCCGCAGAGCUCGAGAACAUCUUCGGAUGCAGAGGAGGCAGGCUUCGGUGGCGCGAUAGCGCCAUCGUCCUCAACCUCCAAUGUAUCCCACCACAUGACGAUGCCUGAAGAGCCUUCGUUUUGUG [U14G A75U C94U U109C G127C U133G] | -4.46
7 | GACCAAUCUGCCCGCAGAGCUCGAGAACAUCUUCGGAUGCAGAGGAGGAAGGCUUCGGUGGCGCGAUAGCGCCAACGUCCUCAACCUCCAAUGCAACCCACCACAUGAUGAUGCCUGAAGAGCCUUGGUUUUUUG [U14G C49A U96A] | -3.85
8 | GACCAAUCUGCCCGGAGAGCUCGAGAACAUCUUCGGAUGCAGAGGAGGCAGGCUUCGGUGGCGCGAUAGCGCCAACGUCCUCAACCUCCAAUGCAUCCCACCACAUGAUGAUGCCUGAAGAGCCUUGGUUUUUUG [U14G C15G] | -5.02
9 | GACCAAUCUGCCCGCAGAGCUCGAGAACAUCUUCGGAUGGAGAGGAGGCAGGCUUCGGUGGCGCGAUAACGCCAACGUCCUCAACCUCCAAUGCAUCCCACCACAUGAUGAUGCCUGAAGAGCCUUGGUUUUUUG [U14G C40G G69A] | -3.52
10 | GACCAAUCUGCCCGCAGAGCUCGAGAACAUCUUCGGAUGCAGAGGAGGCAGGCUUUGGUGGCGCGAUAGAGCCAACGUCCUCCACCUCCAAUGCAUCCCACCAGAUGAUAAUGCCAGAAGAGCCUUGGUUUUUUG [U14G C56U C70A A83C C104G G110A U116A] | -5.43
11 | GACCAAUCUGCCCGCAGAGCUCGAGAACAUCUUCGGAUGAAGAGGAGGCAGGCUUCGGUGGUGCGAUAGCGCCAACGUCCUCAACCUCCAAUGCAUCCCACCACAUGAUGAUGCCUGAAGAGCCUUGGUUUUUUG [U14G C40A C62U] | -3.06
12 | GACCAAUCUGCCCGCAGAGCUCGAGAACAUCUUCGGAUGCAGAGGAGGCCGGCUUCGGUGGCCCGAUAGCGCCAACGUCCUCAACCUCCAAUGAAUCCCACCACAUGAUGAUGCCUGAAGAGCCUUGGUUUUUUG [U14G A50C G63C C94A] | -3.63
13 | GACCAAUCUGCCCGCAGAGCUCGAGAACAUCUUCGGAUGCAGAGGAGGUAGGCUUCGGUGGCGCGAUAGCGCCAACGUCCUCAACCUCCAAUCCAUCCCAACACAUGAUGAUGCCUGAAGAGCCUUGGUUUUUUG [U14G C49U G93C C101A] | -4.35
14 | GACCAAUCUGCCCGUAGAGCUCGAGAACAUCUUCGGAUGCAGAGGAGGGAGGCUUCGAUGGCGCGAUAGCGCCAACGCCCUCAACCUCCAAUGCAUCCCACCACAUGAUGAUGCCUGAAGAGCCUUGGUUUUUUG [U14G C15U C49G G58A U78C] | -5.83
15 | GACCAAUCUGCCCGUAGAGGUCGAGAACAUCUUCGGAUGCAGAGGAGGCAGGCUUCGGUGGCGCGAUAGUGCCAACGUCCUCAACCUCCAAUGCAUCCCACCACAUGAUGAUGCCUGAAGAGACUUGGUUUUUUG [U14G C15U C20G C70U C123A] | -5.25
16 | GACCAAUCUGCCCGCAGAGCUCGAGAACAUCUUCGGAUGCAGAGGAGGCAGGUUUCGGUGGCGCGAUAGCGCCAACGUCCUCAAACUGCAAUGCAUCCCACCACAUGAUGAUGCCUGAAGAGCCUUGGUUUUUUG [U14G C53U C85A C88G] | -3.97
17 | GACCAAUCUGCCCGCAGAGCUCGAGAACAUCUUCGGAUGGAGAGGAGGCAGGCUUCGGUGGCGCGAUAGCGCAAACGUCCUCAACCUCCAAUGCAUCCCACCACUUGAUGAUGCCUGAAGAGCCUUGGUUUUUUG [U14G C40G C73A A105U] | -4.25
18 | GACCAAUCUGCCCGGAGAGCUCGAGAACAUCUGCGGAUGAAGAGGAGGCAGGCUUCGGUGGCGCGAUAGCGCCAACGUCCUCAACCUCCAAUGCAUCCCACCACAUGAUGAUGGCUGAAGAGCCUUGGUCUUUUG [U14G C15G U33G C40A C114G U130C] | -5.88
19 | GACCAAUCUGCCCGCAGAGCUCGAGAACAUCUUCGGAUGAAGAGGAGGCAGGCUUCGGUGGCGCGAUAGCGCCAACGUCCUCAACCUCCAAUGCAUCCCACCACAUGAUGAUGCCUGAAGAGCCUUGGUUUUUUG [U14G C40A] | -2.06
20 | GACCAAUCUGCCCGCAGAGAUCGAGAACAUCUUCGGAUGCAGAGGAGGCAGGCUUCGGUGGCGCGAUAGCGCUAACGUCCUCAACCUCCAAUGCAUCCCACUACAUGAUGAUGCCUGAAGAGCCUUGGUUUUAUG [U14G C20A C73U C102U U133A] | -4.53
21 | GACCAAUCUGCCCGCAGAGCUCGAGAACAUCUUCGGAUGCAGAGGAGGCAGGCUUCGGUGGCGCGAUAGCGCCAACGUCCUCAACCUCCAAUGCAUCCCACCACAUGAUGAUGCCUGAAGCGCCUUGGUUUUUUG [U14G A121C] | 0.71
